Assay results as given in article PMC5112516.
Positions count from the first letter of the chain named.

Tests used:
Assay in all cases: tryptophan fluorescence quenching
Conditions in all cases: Fluorescence and EMSA: PBS (130 mM NaCl, 2.7 mM KCl, 10 mM Na2HPO4, 2 mM KH2PO4, pH 7.4), 25 C; ELISA: 10 mM KH2PO4, 50 mM KCl, pH 7, 0.1% Tween 20
[1] = molecular target: T1, Sac7d (Sulfolobus acidocaldarius) (UniProt P13123)
T1 sequence: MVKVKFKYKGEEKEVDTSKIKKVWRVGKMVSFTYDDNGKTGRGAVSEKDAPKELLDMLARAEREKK

Mcu7 = test system: Mcu7
[2] = molecular target: T2, Sac7e (Sulfolobus acidocaldarius) (UniProt P13125)
T2 sequence: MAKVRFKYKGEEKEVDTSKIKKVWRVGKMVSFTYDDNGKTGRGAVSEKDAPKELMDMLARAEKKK

Mse7 = test system: Mse7
[3] = molecular target: T1, Sac7d (Sulfolobus acidocaldarius); remark: listed apart in the source
[4] = molecular target: T3, Ssh7a (Sulfolobus shibatae) (UniProt P61990)
T3 sequence: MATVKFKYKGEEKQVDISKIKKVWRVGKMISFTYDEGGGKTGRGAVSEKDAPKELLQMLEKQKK

Sto7 = test system: Sto7
[5] = molecular target: T4, Aho7a (Acidianus hospitalis) (UniProt F4B991)
T4 sequence: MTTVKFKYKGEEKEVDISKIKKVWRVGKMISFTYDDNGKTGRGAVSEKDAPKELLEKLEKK

Sis7b = test system: Sis7b
[6] = molecular target: T5, Sso7d (Sulfolobus solfataricus) (UniProt P39476)
T5 sequence: T3 sequence with Q14E

[7] = molecular target: T6, Ssh7b (Sulfolobus shibatae) (UniProt O59632)
T6 sequence: T3 sequence with A2V, Q14E, I17T

[8] = molecular target: T7, Aho7c (Acidianus hospitalis) (UniProt F4B8X5)
T7 sequence: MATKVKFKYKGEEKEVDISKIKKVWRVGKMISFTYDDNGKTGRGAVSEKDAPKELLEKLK

[9] = molecular target: T8, Aho7b (Acidianus hospitalis) (UniProt F4B9I5)
T8 sequence: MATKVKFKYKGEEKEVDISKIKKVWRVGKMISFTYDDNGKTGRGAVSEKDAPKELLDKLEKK

Sis7a = test system: Sis7a

Substance: calf-thymus DNA (ct-DNA), sonicated
- Kd [1]: 0.203 µM
- Kd (Mcu7): 16 µM
- Kd [2]: 11 µM
- Kd (Mse7): 15 µM
- Kd [3]: 13 µM
- Kd [4]: 18 µM
- Kd (Sto7): 14 µM
- Kd [5]: 16 µM
- Kd (Sis7b): 16 µM
- Kd [6]: 17 µM
- Kd [7]: 22 µM
- Kd [8]: 16 µM
- Kd [9]: 13 µM
- Kd (Sis7a): 15 µM
